Measured values taken from patent US20170096474A1 (published 2017).

Assays:
[1] = molecular target: T1, BoNT/B translocation domain (HN), yeast displayed (Clostridium botulinum, UniProt P10844 442-857); assay: soluble scFv or IgG on yeast-displayed BoNT/B domains
T1 sequence: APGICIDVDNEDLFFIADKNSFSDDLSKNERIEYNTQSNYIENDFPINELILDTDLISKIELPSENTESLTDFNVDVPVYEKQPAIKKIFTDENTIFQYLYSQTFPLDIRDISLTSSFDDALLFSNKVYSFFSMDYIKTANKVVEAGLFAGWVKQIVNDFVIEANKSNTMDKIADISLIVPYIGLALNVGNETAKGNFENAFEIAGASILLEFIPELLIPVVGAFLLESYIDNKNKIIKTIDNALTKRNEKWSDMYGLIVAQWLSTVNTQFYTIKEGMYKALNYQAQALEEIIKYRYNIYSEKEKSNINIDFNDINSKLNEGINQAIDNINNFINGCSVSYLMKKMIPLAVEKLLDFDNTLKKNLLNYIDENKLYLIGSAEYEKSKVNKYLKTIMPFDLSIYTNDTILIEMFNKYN

[2] = molecular target: T2, BoNT/B light chain (LC), yeast displayed (Clostridium botulinum, UniProt P10844 1-441); assay: labeled detection mAb in flow cytometry sorting
T2 sequence: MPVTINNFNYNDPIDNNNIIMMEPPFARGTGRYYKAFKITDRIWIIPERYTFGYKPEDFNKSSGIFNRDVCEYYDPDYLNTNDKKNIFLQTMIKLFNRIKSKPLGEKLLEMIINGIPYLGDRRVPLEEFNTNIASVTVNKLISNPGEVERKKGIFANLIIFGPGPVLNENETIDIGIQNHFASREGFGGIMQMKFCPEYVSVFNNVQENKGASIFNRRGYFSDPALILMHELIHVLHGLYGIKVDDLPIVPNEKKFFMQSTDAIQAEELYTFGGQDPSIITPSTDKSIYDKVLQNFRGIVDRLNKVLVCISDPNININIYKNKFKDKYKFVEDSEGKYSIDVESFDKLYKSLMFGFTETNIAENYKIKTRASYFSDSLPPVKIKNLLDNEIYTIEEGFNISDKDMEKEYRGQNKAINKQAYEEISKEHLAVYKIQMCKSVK

[3] = molecular target: T1, BoNT/B translocation domain (HN), yeast …; assay: yeast-displayed scFv
[4] = molecular target: T2, BoNT/B light chain (LC), yeast displayed; assay: soluble scFv or IgG on yeast-displayed BoNT/B domains
[5] = molecular target: T1, BoNT/B translocation domain (HN), yeast …; assay: IgG/Fab on yeast-displayed toxin domain, flow cytometry
[6] = molecular target: T3, Botulinum neurotoxin type B, subtype B1 (BoNT/B1) (Clostridium botulinum, UniProt P10844 2-1291); assay: flow cytometry, yeast-displayed Fab
T3 sequence: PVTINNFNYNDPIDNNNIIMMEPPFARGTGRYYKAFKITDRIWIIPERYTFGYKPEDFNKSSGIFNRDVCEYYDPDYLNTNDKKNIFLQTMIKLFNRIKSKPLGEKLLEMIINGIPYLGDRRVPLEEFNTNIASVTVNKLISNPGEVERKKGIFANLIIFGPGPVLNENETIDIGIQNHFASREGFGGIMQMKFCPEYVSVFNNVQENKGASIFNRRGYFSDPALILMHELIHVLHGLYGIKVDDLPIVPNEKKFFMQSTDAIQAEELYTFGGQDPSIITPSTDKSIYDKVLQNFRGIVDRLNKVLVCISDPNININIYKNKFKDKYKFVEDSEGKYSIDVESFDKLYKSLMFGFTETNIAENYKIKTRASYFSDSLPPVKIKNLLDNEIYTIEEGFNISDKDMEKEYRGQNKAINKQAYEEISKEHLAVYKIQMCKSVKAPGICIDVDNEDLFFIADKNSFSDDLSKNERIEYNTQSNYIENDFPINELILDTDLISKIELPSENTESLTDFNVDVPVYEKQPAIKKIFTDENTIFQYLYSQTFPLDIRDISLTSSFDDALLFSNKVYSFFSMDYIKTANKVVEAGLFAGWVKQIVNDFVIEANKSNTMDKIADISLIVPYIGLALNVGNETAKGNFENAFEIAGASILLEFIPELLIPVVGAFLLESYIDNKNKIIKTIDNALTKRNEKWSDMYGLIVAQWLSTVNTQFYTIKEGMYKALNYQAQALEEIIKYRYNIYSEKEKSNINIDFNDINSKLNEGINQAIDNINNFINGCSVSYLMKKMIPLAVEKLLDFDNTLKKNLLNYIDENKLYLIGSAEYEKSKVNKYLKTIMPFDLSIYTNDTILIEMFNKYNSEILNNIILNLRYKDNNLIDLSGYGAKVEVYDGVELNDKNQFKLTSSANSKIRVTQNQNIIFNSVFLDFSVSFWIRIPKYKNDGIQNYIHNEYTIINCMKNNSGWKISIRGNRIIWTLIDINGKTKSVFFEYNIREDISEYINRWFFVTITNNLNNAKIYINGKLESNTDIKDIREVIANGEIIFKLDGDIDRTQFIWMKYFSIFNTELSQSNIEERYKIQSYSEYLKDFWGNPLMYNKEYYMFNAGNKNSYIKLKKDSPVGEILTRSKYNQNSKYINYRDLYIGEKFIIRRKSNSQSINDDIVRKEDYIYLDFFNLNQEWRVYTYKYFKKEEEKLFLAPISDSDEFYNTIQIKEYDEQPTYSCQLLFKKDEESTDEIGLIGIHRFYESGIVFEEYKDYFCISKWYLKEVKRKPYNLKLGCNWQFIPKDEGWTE

[7] = molecular target: Botulinum neurotoxin type B, subtype B2 (BoNT/B2) (Clostridium botulinum); assay: flow cytometry, yeast-displayed Fab against yeast-displayed scFv
[8] = molecular target: T2, BoNT/B light chain (LC), yeast displayed; assay: yeast-displayed scFv
[9] = molecular target: T3, Botulinum neurotoxin type B, subtype B1 …

B1: 1B18 scFv (scFv)
scFv: EVQLVQSGGGLVQPGGSRRLSCAASGFYFNAYWMTWVRQAPGKGLEWVANINLDGTEIYYLDSVKGRFTVSRDNVKNSVFLQMSSLRVEDTAVYFCARLEWGGRNGWVSPWGQGTLVTVSSGGGGSGGGGSGGGGSDVVMTQSPSSVSASVGDRVTITCRASQSISSYLNWYQQRPGKAPKLLIFAASSLQSAVPSRFSGSGSGTDFTLTISSLQPEDFATYYCQQSYSTPPTFGQGTKVEIK
Question: Does B1 bind [1]?
Answer: Result: binds

B2: A12 IgG (antibody, V domains shown)
VH: EVQLVESGGGVVQPGRSLRLSCAASGFTFSSYGMHWVRQAPGKGLEWVAVIWYDGSNKYYADSVKGRFTISRDNSKNTLYLQMNSLRAEDTAVYYCARGYSNYDYYYGMDVWGQGTTVTVSS
VL: DIQMTQSPSSLSASVGDRVTITCRASQRISNYLNWYQQKPGKAPKLLIYAASSLQSEVPSRFSGSGSGTDFTLTISSLQPEDFATYYCQQSYRPPLTFGGGTKVEIKR
Question: Does B2 bind [2]?
Answer: Result: binds

B3: B11 scFv (scFv)
scFv: QVQLLQSAGGVVQPGRSLRLSCAASGFIFRTYGMHWVRQAPGKGLEWVAFVSSDGNNKFYSDSVKGRFTIPRDNAKNTLYLQMNSLETEDTAVYYCAKDRYPIDCSGGSCFSYGMDVWGQGTTVTVSSGGGGSGGGGSGGGGSDIVMTQSPSTLSASVGDRVTVTCRASQSINSWLAWYQQKPGKAPKLLIYEASSLESGVPSRFSGSGSGTEFTLTISSLQPDDFATYYCQQYDSYWLTFGGGTKVEIK
Question: Does B3 bind [3]?
Answer: Result: binds

B4: 1B11 scFv (scFv)
scFv: QVQLLQSAGGVVQPGRSLRLSCAASGFIFRTYGMHWVRQAPGKGLEWVAFVSSDGNNKFYSDSVKGRFTIPRDNAKNTLYLQMNSLETEDTAVYYCAKDRYPIDCSGGSCFSYGMDVWGQGTTVTVSSGGGGSGGGGSGGGGSDIVMTQSPSTLSASVGDRVTVTCRASQSINSWLAWYQQKPGKAPKLLIYEASSLESGVPSRFSGSGSGTEFTLTISSLQPDDFATYYCQQYDSYWLTFGGGTKVEIK
Question: Does B4 bind [1]?
Answer: Result: binds

B5: 2B29 scFv (scFv)
scFv: QVQLQESGPGLVKPSETLSLTCSVSGGSINSGTYYWTWIRQHPGKGLEWIGYIYYSGTTYYNPSLKSRVSMSVDTSKNLFSLKMNSVTAADTALYYCARGNPQYDTSGSYTGLYFDFWGQGTLVTVSSGGGGSGGGGSGGGGSQPVLTQSPSASGTPGQRVTISCSGSSSNLGSNTVSWYQQLPGTAPKLLIYSNNQRPSGVPDRFSGSKSGTSASLAISGLQSEDEADYYCATWDDSLSGGVFGGGTKLTVL
Question: Does B5 bind [4]?
Answer: Result: binds

B6: 4E17.1 IgG (antibody, V domains shown)
VH: EVQLVRSGGNLVQPGGSLRLSCAATGPIGSHWMTWVRQAPGQGLEWVANINLDGTEKFYVDSVKGRFTVSRDNRKSSVFLQMNNLRVDDTAVYYCARLQWGGYNGWLSPWGQGTLVTVSS
VL: DIVMTQSPSSLSASVGDRVTISCRASQSIRHYVNWYQQKPGKAPKLLIYKASSLASGAPSRFSGSGSGTDFTLTISSLQPDDFATYYCQQSYSIPLTFGGGTKVEIKR
Question: Does B6 bind [5]?
Answer: Result: binds

B7: B6 Fab (Fab, V domains shown)
VH: QVQLVQSGAEVKKPGESLVISCKASGDKDTFTSFWIAWVRQMPGKGLEWMGIIYAGDSDTRYSPSFQGHVNISVDRSTNTAYLQWSSLKASDTAMYYCARHDSRYKYFYFGMDVWGQGTTVTVSS
VL: DVVMTQSPSSLSASVGDRITITCQAGQDISNFLNWYQQKPGKAPKLLIRDASNLETGVPSRFSGGGSGTHFTFTISSLHPEDIATYFCQQYDNLPYTFGQGTKLEIKR
Question: Does B7 bind [6]?
Answer: Result: binds

B8: B11 Fab (Fab, V domains shown)
VH: QVQLLQSAGGVVQPGRSLRLSCAASGFIFRTYGMHWVRQAPGKGLEWVAFVSSDGNNKFYSDSVKGRFTIPRDNAKNTLYLQMNSLETEDTAVYYCAKDRYPIDCSGGSCFSYGMDVWGQGTTVTVSS
VL: DIVMTQSPSTLSASVGDRVTVTCRASQSINSWLAWYQQKPGKAPKLLIYEASSLESGVPSRFSGSGSGTEFTLTISSLQPDDFATYYCQQYDSYWLTFGGGTKVEIKR
Question: With B8 as the binder, how does the fold higher affinity than the scFv [7] read?
Answer: Its fold higher affinity than the scFv is 1.46 fold.

B9: 6A12 IgG (antibody, V domains shown)
VH: QVQLVESGGGVVQPGRSLRLSCAASGFTFSSYGMHWVRQAPGKGLEWVSYISSSGSTIYYADSVKGRFTISRDNAKNSLYLQMNSLRAEDTAVYYCARVSIVGGPYGMDVWGQGTTVTVSS
VL: DIQMTQSPSSVSASVGNRVTITCRASQGISSWLAWYQQKPGKAPKLLIYAASSLQSGVPSRFSGSGSGTDFTLTISSLQPEDFATYYCQKANSFPLTFGGGTKMEIKR
Question: Does B9 bind [2]?
Answer: Result: binds

B10: B6 scFv (scFv)
scFv: QVQLVQSGAEVKKPGESLVISCKASGDKDTFTSFWIAWVRQMPGKGLEWMGIIYAGDSDTRYSPSFQGHVNISVDRSTNTAYLQWSSLKASDTAMYYCARHDSRYKYFYFGMDVWGQGTTVTVSSGGGGSGGGGSGGGGSDVVMTQSPSSLSASVGDRITITCQAGQDISNFLNWYQQKPGKAPKLLIRDASNLETGVPSRFSGGGSGTHFTFTISSLHPEDIATYFCQQYDNLPYTFGQGTKLEIK
Question: Does B10 bind [8]?
Answer: Result: binds

B11: 4B19.1 IgG (antibody, V domains shown)
VH: QVQLVQSGAEVKKPGASVNVSCKASGYTFTGYYIYWVRQAPGQGLEWMGWINPNSGVTKYAQKFQGRVTMTIDTSTNTAYMELNRLRADDTAVYYCAREWTQLWSPYDYWGQGTTVTVSS
VL: DIVLTQSPSTLSASVGDRVTISCRASRSIGWYLNWYQQRPGKAPKLLIYAASSLHNGVPSRFSGSGSGTEFTLTISSLQPDDFATYYCQQAFGFPRTFGQGTKVEIKR
Question: B11 was tested. Which “fold increase in affinity, IgG against parental scFv” value [9] did it give?
Answer: Its value is 2.25 fold.
